The source of these data is patent US20120129768A1.

This experiment deals with Glucagon-like peptide-1 receptor (GLP1R). Briefly: cell-based or functional assay.

Chain of Liraglutide (peptide) (peptide): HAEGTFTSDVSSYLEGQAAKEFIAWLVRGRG

Regarding Liraglutide (peptide), the Maximum reaction rate (%) came to 96.8%.
